Results as given in patent US20220226493A1.

Target: CD117 on Kasumi-1 cells, P10721
Experiment: cell-based or functional assay

B1: CK6-SET0207 (CK6 with Fc modifications D265C H435A) (antibody, V domains shown)
VH: QVQLVQSGAAVKKPGESLKISCKGSGYRFTSYWIGWVRQMPGKGLEWMGIIYPGDSDTRYSPSFQGQVTISAGKSISTAYLQWSSLKASDTAMYYCARHGRGYNGYEGAFDIWGQGTMVTVSS
VL: AIQLTQSPSSLSASVGDRVTITCRASQGISSALAWYQQKPGKAPKLLIYDASSLESGVPSRFSGSGSGTDFTLTISSLQPEDFATYYCQQFNSYPLTFGGGTKVEIK
% Efficacy (in vitro Kasumi cell killing assay, CellTiter-Glo): 0%

B2: CK6-DM (anti-CD117 antibody CK6 with Fc modification S239C conjugated to duocarmycin) (antibody, DAR 1.65, V domains shown)
VH: B1 VH
VL: B1 VL
% Efficacy (in vitro Kasumi cell killing assay, CellTiter-Glo): 0%

B3: CK6-PNU (anti-CD117 antibody CK6 with Fc modification S239C conjugated to PNU) (antibody, DAR 1.4, V domains shown)
VH: B1 VH
VL: B1 VL
% Efficacy (in vitro Kasumi cell killing assay, CellTiter-Glo): 85.7%

B4: CK6-PBD (anti-CD117 antibody CK6 with Fc modification S239C conjugated to PBD) (antibody, DAR 1.7, V domains shown)
VH: B1 VH
VL: B1 VL
% Efficacy (in vitro Kasumi cell killing assay, CellTiter-Glo): 60.7%

B5: CK6-D4 (anti-CD117 antibody CK6 with Fc modification S239C conjugated to calicheamicin) (antibody, DAR 1.72, V domains shown)
VH: B1 VH
VL: B1 VL
% Efficacy (in vitro Kasumi cell killing assay, CellTiter-Glo): 0%
